The text below walks through data of article PMC8365315 (EBioMedicine, 2021).

The assay deals with exportin 4 (XPO4) (UniProt Q9C0E2 1-1151). Kind of assay: SPR.
Sequence of exportin 4 (XPO4) (Q9C0E2 whole entry): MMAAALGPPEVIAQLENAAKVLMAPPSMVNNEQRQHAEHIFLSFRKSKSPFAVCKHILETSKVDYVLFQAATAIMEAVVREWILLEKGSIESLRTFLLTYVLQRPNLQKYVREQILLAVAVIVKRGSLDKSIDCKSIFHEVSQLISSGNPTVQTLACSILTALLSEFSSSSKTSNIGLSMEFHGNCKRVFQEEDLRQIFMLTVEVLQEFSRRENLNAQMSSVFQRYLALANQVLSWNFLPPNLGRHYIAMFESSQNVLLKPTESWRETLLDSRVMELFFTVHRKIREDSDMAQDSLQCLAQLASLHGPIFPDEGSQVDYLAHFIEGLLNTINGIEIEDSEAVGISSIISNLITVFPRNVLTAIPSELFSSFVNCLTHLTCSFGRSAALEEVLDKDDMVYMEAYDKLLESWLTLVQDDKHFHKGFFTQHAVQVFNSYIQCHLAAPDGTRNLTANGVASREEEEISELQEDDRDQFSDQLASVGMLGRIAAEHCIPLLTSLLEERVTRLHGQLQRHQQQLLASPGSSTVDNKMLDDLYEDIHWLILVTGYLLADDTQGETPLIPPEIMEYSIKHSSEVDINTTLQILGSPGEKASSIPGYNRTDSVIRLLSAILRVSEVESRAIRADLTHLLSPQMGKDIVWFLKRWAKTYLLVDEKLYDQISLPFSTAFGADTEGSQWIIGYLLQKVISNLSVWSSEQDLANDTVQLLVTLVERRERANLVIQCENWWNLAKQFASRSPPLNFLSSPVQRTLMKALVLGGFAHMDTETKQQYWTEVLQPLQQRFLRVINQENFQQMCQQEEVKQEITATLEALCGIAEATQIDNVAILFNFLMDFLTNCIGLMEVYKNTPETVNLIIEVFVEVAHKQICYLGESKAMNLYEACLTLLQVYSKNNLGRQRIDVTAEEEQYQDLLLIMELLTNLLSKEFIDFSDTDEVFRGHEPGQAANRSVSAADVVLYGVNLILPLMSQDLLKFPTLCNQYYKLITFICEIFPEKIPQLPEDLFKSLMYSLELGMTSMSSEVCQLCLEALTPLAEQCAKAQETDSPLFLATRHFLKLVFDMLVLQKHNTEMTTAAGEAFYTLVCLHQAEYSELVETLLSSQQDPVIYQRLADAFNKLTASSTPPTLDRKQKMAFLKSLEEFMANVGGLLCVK

B1: SMAD3 (natural protein, UniProt P84022 1-425, looked up)
chain: MSSILPFTPPIVKRLLGWKKGEQNGQEEKWCEKAVKSLVKKLKKTGQLDELEKAITTQNVNTKCITIPRSLDGRLQVSHRKGLPHVIYCRLWRWPDLHSHHELRAMELCEFAFNMKKDEVCVNPYHYQRVETPVLPPVLVPRHTEIPAEFPPLDDYSHSIPENTNFPAGIEPQSNIPETPPPGYLSEDGETSDHQMNHSMDAGSPNLSPNPMSPAHNNLDLQPVTYCEPAFWCSISYYELNQRVGETFHASQPSMTVDGFTDPSNSERFCLGLLSNVNRNAAVELTRRHIGRGVRLYYIGGEVFAECLSDSAIFVQSPNCNQRYGWHPATVCKIPPGCNLKIFNNQEFAALLAQSVNQGFEAVYQLTRMCTIRMSFVKGWGAEYRRQTVTSTPCWIELHLNGPLQWLDKVLTQMGSPSIRCSSVS
B1: binding was characterised by a dissociation constant (Kd) of 4.88 nM.
